Legend:
factor IXa = molecular target: T1, factor IXa (UniProt P00740 47-191; P00740 227-461); assay: SPR (BIAcore 3000), Ir-CPI immobilized on CM5 chip, factor injected as analyte
T1 construct: read as fIXa; also called FIXa
Experimental: (§1) The interaction between Ir-CPI and coagulation or fibrinolytic factors was monitored using a BIAcore 3000 instrument (BIAcore AB, Sweden). Ir-CPI (15 μM) was immobilized on the surface of a CM5 sensor chip in 10 mM acetate buffer, pH 5.0, by the amine coupling procedure according to the manufacturer's instructions. 1500 resonance units (RU) of immobilized Ir-CPI were used for the assay. To subtract the non-specific component from the apparent binding response, a blank flow cell was prepared using the same immobilizing procedure without Ir-CPI. Binding analyses were carried out using HBS buffer (HEPES10 mM, NaCl 150 mM, EDTA 3 mM; pH 7.4 with 0.005% surfactant P20) as running buffer at 25° C. 100 μl of each analyte (100 nM) was injected on the sensor chip at a flow rate of 70 μl/min. Association was monitored during an 84 s injection of analyte. Dissociation was monitored for 3 min after return to the running buffer.
(§2) The ability of Ir-CPI to bind a (co)factor of coagulation or fibrinolysis was evaluated by surface plasmon resonance. […] Moreover, the kinetics of interaction between Ir-CPI and the four target factors (XIIa, XIa, plasmin and kallikrein) were measured after a new immobilization of Ir-CPI. In experiments to determine the binding kinetics, the quantity of immobilized Ir-CPI was deliberately kept at a low level (approximately 200 RU) in order to avoid problems where the reaction rate is limited by mass-transport. […] Interaction kinetics were determined for each analyte, at 6 different concentrations (from 5 nM to 300 nM). The kinetic data obtained were individually processed with BIA evaluation software in order to determine the kinetics constants.

t-PA = t-PA (UniProt P00750 36-562); assay: as above
Chain of t-PA (P00750 36-562 limits assumed): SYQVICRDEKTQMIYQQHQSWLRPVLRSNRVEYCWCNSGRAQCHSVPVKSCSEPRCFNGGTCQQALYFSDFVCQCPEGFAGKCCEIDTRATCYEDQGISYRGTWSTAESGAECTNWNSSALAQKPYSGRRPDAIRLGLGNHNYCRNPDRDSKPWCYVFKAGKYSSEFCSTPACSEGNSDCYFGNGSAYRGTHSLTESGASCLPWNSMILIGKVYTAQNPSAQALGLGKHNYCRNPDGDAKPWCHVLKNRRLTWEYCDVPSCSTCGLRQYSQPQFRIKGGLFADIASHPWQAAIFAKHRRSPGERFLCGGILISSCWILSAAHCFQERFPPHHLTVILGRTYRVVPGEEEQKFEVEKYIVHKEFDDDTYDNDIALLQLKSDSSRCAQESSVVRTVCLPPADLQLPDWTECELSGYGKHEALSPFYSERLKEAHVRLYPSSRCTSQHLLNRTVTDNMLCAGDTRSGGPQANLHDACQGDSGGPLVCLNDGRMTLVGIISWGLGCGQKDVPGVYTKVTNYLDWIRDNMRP
Experimental: as §1, §2

factor IX = molecular target: T2, factor IX (UniProt P00740 47-461); assay: as above
T2 construct: also called fIX
Experimental: as §1, §2

plasminogen = plasminogen (UniProt P00747 20-810, limits assumed); assay: as above
Chain of plasminogen (P00747 20-810 limits assumed): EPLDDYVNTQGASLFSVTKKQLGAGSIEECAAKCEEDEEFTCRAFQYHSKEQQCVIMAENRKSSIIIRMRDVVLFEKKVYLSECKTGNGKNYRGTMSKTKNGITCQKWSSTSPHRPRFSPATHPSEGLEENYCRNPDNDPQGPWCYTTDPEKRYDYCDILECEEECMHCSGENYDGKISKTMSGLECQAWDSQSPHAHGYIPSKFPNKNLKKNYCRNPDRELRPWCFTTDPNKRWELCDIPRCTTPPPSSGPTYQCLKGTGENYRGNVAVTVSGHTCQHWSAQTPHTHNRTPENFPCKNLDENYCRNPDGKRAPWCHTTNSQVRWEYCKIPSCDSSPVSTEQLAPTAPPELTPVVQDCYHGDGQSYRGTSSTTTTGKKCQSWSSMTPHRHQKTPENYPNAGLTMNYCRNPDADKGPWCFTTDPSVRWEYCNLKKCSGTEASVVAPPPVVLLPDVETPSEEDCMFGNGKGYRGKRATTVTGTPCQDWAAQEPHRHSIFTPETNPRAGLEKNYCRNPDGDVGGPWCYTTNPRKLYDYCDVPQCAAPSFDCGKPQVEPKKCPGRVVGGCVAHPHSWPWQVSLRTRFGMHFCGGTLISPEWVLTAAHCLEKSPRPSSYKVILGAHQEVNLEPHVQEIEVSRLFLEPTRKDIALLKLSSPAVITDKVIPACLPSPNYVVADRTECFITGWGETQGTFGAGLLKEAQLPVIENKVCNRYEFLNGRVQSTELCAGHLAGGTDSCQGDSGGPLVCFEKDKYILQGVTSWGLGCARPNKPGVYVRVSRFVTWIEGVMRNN
Experimental: as §1, §2

factor X = molecular target: T3, factor X (UniProt P00742 41-488); assay: as above
T3 construct: also called fX
Experimental: as §1, §2

factor VIIa = molecular target: T4, factor VIIa (UniProt P08709 61-466); assay: as above
T4 construct: also called fVIIa; FVIIa
T4 sequence (looked up): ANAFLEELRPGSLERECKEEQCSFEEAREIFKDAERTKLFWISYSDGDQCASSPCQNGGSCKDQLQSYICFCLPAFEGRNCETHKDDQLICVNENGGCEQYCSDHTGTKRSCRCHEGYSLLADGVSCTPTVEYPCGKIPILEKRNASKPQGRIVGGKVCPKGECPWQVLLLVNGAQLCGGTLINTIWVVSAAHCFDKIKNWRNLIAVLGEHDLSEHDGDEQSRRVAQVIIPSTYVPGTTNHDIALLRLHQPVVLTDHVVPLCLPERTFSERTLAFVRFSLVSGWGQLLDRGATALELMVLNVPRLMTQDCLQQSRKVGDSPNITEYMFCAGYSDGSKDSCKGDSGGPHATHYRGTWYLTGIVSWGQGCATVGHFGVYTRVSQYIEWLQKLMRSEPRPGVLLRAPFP
Experimental: as §1, §2

[1] = molecular target: T5, high molecular weight kininogen (UniProt P01042 19-644); assay: as above
T5 construct: also called HMWK
T5 sequence (looked up): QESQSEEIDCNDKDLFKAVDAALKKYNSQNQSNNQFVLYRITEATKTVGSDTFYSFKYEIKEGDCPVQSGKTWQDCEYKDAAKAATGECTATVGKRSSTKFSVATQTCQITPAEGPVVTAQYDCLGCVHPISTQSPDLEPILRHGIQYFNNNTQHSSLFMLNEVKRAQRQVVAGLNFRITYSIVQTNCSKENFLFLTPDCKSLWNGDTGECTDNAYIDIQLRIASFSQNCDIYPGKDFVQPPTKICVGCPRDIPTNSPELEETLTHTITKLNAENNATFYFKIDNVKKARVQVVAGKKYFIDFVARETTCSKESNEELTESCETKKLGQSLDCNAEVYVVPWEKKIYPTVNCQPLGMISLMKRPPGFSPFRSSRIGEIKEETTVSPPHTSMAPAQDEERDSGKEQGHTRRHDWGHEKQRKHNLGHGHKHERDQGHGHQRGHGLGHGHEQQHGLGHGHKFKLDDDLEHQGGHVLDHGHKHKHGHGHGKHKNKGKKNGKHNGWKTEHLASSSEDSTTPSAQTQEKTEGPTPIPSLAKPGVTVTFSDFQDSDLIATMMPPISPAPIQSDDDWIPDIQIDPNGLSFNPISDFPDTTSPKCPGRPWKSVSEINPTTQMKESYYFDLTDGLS
Experimental: as §1, §2

thrombin = thrombin (UniProt P00734 328-622); assay: as above
Experimental: as §1, §2

kallikrein = molecular target: T6, kallikrein (UniProt P03952 20-638); assay: SPR kinetics (BIAcore 3000), Ir-CPI immobilized at about 200 RU, analyte at 6 concentrations from 5 nM to 300 nM
T6 construct: also called plasma kallikrein
T6 sequence (P03952 20-638 limits assumed): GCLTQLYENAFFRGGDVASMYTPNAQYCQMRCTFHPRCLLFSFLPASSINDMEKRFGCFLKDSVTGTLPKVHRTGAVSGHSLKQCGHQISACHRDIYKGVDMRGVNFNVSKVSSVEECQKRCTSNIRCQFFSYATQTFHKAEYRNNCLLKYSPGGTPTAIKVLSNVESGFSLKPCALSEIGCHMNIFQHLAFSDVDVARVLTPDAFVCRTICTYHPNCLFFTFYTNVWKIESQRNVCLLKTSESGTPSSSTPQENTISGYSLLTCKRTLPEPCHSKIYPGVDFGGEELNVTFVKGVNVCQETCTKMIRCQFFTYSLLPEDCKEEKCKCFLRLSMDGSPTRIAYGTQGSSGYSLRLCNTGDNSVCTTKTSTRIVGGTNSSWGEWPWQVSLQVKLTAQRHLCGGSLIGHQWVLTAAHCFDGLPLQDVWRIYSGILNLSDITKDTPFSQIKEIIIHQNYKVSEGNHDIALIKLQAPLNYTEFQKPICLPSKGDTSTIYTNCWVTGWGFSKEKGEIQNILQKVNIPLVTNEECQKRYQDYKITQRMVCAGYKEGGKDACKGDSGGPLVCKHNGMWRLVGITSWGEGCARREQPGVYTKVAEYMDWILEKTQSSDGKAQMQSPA
Experimental: Interaction kinetics were determined, for each analyte, with 6 different concentrations (from 5 nM to 300 nM). Binding data were analyzed using BIA evaluation software to determine the kinetic constants.
as §2, with “constants. […] FIG. 9 represents sensorgrams for interactions between coagulation factors and immobilized Ir-CPI measured by surface plasmon resonance. Ir-CPI was immobilized onto the surface of a sensor chip CM5 at level of 1500 resonance units (RUs). Contact factors (100 nM final concentration) were injected at a flow rate of 70 μl/min in HBS buffer, and association was monitored. After return to buffer flow, dissociation was monitored during 84 s. […]” for “constants.”

B1: Ir-CPI (Ixodes ricinus Contact Phase Inhibitor), recombinant, without its peptide signal (other)
chain: ANHKGRGRPAKCKLPPDDGPCRARIPSYYFDRKTKTCKEFMYGGCEGNENNFENITTCQEECRAKKV
notes: Immobilized on a CM5 chip by amine coupling for SPR; also called recombinant Ir-CPI
- binding result (factor IXa): no binding (tested: 100 nM)
- binding result (t-PA): no binding (tested: 100 nM)
- binding result (factor IX): no binding (tested: 100 nM)
- binding result (plasminogen): no binding (tested: 100 nM)
- binding result (factor X): no binding (tested: 100 nM)
- binding result (factor VIIa): no binding (tested: 100 nM)
- binding result [1]: no binding (tested: 100 nM)
- binding result (thrombin): no binding (tested: 100 nM)
- Kd (kallikrein): 200 nM

Reference: patent US20080219970A1 (published 2008)
